Data from paper PMC3103399 (Molecular Biology of the Cell, 2011).
Non-standard residues stand in square brackets, D forms with d. No end group written: not given here. pY = N[C@@H](Cc1ccc(OP(=O)(O)O)cc1)C(=O)O

Target: T1, GST-nephrin-CD (residues 1102–1252) (rat, UniProt Q9R044 1102-1252)
T1 sequence (looked up): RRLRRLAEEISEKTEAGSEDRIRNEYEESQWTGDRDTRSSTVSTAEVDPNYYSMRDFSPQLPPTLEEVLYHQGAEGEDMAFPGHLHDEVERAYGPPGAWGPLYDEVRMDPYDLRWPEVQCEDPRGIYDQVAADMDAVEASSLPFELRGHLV
Assay: pull-down

binding result: binds
Binder: CLASPA[pY]LSLSSE [phosphorylated TRPC6 Y284 peptide]
